Experimental data: patent US7829082B2, “Catheter composition and uses thereof” (Genentech, Inc., priority 2001, dated 2010)

Assays:
[1] = 2 mg of alteplase or 10,000 U of urokinase, dwell 2 hours, up to two treatments; p=0.013; Haire et al.; cited from earlier work
[2] = biological target: T1, in vitro clot consisting of plasminogen and fibrin (Homo sapiens, UniProt P00747+P02671+P02675+P02679); assay: Purified clot lysis activity for rt-PA; type: biochemical
T1 construct: Plasminogen kept frozen at or below −60° C. until use; purchased Biocell (fibrinogen); Calbiochem (thrombin)
T1 sequence (P00747 20-810 limits assumed): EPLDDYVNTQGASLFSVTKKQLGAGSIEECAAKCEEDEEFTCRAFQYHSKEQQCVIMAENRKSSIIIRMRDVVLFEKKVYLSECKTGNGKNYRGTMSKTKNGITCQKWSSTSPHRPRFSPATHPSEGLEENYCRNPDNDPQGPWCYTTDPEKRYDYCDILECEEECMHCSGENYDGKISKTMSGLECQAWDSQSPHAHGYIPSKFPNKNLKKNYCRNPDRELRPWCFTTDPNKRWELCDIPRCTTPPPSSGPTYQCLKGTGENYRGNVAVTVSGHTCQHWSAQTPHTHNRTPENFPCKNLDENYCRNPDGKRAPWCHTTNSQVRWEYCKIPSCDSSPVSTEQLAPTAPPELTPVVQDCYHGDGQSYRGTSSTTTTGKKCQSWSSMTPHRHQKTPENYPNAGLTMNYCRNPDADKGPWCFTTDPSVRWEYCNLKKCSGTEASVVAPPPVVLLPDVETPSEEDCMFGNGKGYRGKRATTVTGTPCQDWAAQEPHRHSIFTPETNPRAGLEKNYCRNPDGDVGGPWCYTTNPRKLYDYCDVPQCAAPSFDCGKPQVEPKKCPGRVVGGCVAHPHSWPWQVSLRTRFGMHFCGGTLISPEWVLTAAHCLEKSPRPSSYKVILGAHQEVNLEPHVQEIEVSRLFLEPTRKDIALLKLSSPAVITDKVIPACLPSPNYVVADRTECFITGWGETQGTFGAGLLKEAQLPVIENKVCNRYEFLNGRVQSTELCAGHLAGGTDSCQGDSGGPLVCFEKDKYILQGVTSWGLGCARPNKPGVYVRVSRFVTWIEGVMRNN
T1 sequence (P02671 36-629 limits assumed): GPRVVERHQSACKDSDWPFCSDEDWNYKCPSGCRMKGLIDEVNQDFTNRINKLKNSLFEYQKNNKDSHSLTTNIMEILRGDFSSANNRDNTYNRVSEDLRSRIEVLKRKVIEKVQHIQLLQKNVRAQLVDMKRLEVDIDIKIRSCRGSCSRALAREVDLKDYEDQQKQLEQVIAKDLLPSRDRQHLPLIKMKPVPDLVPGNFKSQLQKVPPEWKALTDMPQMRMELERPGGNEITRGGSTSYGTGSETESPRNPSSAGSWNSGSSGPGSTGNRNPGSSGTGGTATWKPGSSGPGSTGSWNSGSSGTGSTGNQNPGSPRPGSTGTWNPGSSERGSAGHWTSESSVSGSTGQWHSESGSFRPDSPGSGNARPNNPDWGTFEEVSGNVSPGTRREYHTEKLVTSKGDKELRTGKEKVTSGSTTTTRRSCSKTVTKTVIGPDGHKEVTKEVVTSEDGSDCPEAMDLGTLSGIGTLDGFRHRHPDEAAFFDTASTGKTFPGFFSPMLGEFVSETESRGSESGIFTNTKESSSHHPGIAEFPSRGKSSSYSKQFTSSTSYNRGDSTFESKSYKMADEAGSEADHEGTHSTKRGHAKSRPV
T1 sequence (P02675 45-491 limits assumed): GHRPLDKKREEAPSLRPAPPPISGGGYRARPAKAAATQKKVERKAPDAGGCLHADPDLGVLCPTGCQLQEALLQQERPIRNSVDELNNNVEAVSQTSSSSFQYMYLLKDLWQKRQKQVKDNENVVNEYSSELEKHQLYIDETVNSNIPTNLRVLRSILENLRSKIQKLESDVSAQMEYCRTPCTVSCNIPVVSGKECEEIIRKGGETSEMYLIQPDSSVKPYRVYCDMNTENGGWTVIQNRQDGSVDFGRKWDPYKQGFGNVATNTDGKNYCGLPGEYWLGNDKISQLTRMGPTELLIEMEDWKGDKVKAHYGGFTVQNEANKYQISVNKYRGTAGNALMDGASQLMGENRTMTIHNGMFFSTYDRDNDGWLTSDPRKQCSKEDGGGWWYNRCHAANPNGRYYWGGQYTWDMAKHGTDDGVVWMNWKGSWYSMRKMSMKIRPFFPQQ
T1 sequence (P02679 27-437 isoform P02679-2 limits assumed): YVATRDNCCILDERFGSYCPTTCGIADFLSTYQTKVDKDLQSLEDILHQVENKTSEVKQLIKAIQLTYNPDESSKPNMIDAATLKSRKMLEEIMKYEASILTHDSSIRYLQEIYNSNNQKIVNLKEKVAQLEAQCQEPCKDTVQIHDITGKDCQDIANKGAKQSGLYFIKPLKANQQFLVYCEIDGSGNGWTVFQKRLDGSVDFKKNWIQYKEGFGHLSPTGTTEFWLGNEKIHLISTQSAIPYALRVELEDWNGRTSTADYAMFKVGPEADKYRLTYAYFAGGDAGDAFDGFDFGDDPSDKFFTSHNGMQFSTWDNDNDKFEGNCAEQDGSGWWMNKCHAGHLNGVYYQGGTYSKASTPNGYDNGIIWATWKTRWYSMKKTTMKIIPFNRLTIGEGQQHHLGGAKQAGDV
Protocol: (7) Purified clot lysis activity for rt-PA. […] Samples were diluted to assay range (200-1000 ng/mL) in two concentrations with diluent. Dilutions were performed the day before the assay and diluted samples were stored at 2-8° C. until analysis the next day. rt-PA reference material was diluted similarly as an internal reference.
2. Purified Clot Lysis Test (Microcentrifugal Analyzer (Test 1) and Plate Reader (Test 2)):
The potency of the alteplase t-PA protein was assessed by the purified clot lysis assay described below. Samples were diluted to assay range (200-1000 ng/mL) in three or two concentrations with diluent. Dilutions were performed the day before the assay and diluted samples were stored at 2-8° C. until analysis the next day. Rt-PA reference material was diluted similarly as an internal reference.
The assay works as follows: Reagents are substances added to a solution of another substance to participate in a chemical reaction. In this case, contents of boat 1 will react with contents of boat 2 to form a standardized clot. […] As the clot breaks apart, there is a change in the absorbance (light) characteristics. The absorbance is plotted versus time. […]
The endpoint (lysis time) may be determined by a computer program or manually. For automatic calculation by computer, the endpoint is the time required to lyse the clot, which is determined automatically. For manual endpoint determination, the endpoint is defined as the first time point below 0.03 absorbance units where the change is less than 0.003 abs unit. Specifically, for manual determination, the endpoint was determined from the absorbance time data. The first absorbance point less than 0.0300 was located. The endpoint was determined as the time of the first absorbance value less than 0.0300 if the change in absorbance between the current absorbance and the subsequent absorbance was less than 0.0030. If the delta absorbance was greater than 0.0030, one moved to the next absorbance reading and determined the delta absorbance. […]
The mean lysis time for each standard curve point was calculated. […]

[3] = Visual inspection of alteplase diluted in NS; type: physicochemical
Protocol: Alteplase (2 mg/vial rt-PA) was diluted to a concentration of 0.01, 0.025, 0.05, and 0.1 mg/mL final protein concentration in 0.9% NaCl (Normal Saline, NS)-containing IV bags (Baxter and/or Abbott, 250 mL). Specifically, rt-PA, protein bulk, was diluted to 1 mg/mL (50-mg vial formulation equivalent, 0.004% TWEEN 80™ surfactant) with filtered MILLI-Q™ water, or a 100-mg vial rt-PA was reconstituted to 1 mg/mL (0.008-0.011% TWEEN 80™ surfactant) with Sterile Water for Injection, USP (SWFI) using a 60-cc BD syringe and an 18 G needle directly inserted into the rubber septum of the vial at the center of the cake. The vial was gently mixed by slow inversions or rolling action until the cake was totally dissolved. IV diluent (0.9% NaCl, NS) was withdrawn and replaced with the same amount of the reconstituted or diluted 1 mg/mL rt-PA as follows:
After dilution into the IV bags (n=2 for each concentration), the bags were gently mixed by inversion (about 20-24 times). A 10-mL aliquot was withdrawn from the inlet port of the IV bag using a 10-cc BD syringe and 22 G needle. An aliquot (t=0) was dispensed directly into a 20-cc Type I clear glass vial for visual inspection. […]
Each aliquot was examined under a light box equipped with a black and white background. […] The color and clarity of the aliquots were recorded accordingly.

Substance: urokinase
- Catheters with function restored [1]: 59%

Substance: alteplase t-PA: tissue plasminogen activator in a native form such as ACTIVASE® alteplase t-PA; in Example 7 diluted in 0.9% NaCl
- Lytic activity in clot lysis effectiveness test ([2]; diluted down to 0.01 mg/mL in normal saline): lytically active
- Lytic activity after storage ([2]; diluted to 0.01, 0.02, and 0.05% mg/mL in 0.9% NaCl IV bags, after 24 hours of storage at ambient conditions): lytically active
- Specific activities by the clot-lysis activity assay ([2]; fractions collected over 24 hours, all concentrations in NS, in the majority of cases): greater than 90%
- Visual inspection ([3]; 0.1 mg/mL in NS, immediately after dilution and throughout the infusion period): slightly cloudy solution
- Visual inspection ([3]; diluted to 0.01, 0.025, and 0.05 mg/mL with NS, initially and after 24 hours of infusion (no filter) at room temperature): colorless, clear to slightly opalescent solutions
- Catheters with function restored [1]: 89%
